For one data set, the system named is MCF7. Briefly: percentage of EdU-negative (G0-arrested) nuclei per well, 72 h; higher = more G0 arrest. The following applies: reference: sequence is the full UniProt precursor, the tested protein was the secreted form or ectodomain.
The next data set relates to hTERT-HMEC. The description is as above. As to conditions: reference: sequence is the full UniProt precursor, the tested protein was the secreted form or ectodomain.
The mark [1] stands for this setting: protein concentration 0.0225 µM.
Setting [2] is: protein concentration 0.03125 µM.
The mark [3] stands for this setting: protein concentration 0.3125 µM.
The mark [4] stands for this setting: protein concentration 0.0153175 µM.
The mark [5] stands for this setting: protein concentration 0.153175 µM.
Setting [6] is: protein concentration 0.01975 µM.
Where [7] appears, read: protein concentration 0.1975 µM.
The mark [8] stands for this setting: protein concentration 0.0257143 µM.
The mark [9] stands for this setting: protein concentration 0.257143 µM.

± gives the standard deviation of the averaged measurements.
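Also: secreted proteins added to cultured cells, EdU pulse at the end, nuclei found by Hoechst imaging, EdU status from nuclear versus surrounding ring intensity ratio, PBS as neutral control.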

In the case of “MARYMLLLLLAVWVLTGELWPGAEARAAPYGVRLCGREFIRAVIFTCGGSRWRRSDILAHEAMGDTFPDADADEDSLAGELDEAMGSSEWLALTKSPQAFYRGRPSWQGTPGVLRGSRDVLAGLSSSCCKWGCSKSEISSLC [Q8WXF3]”, the “percentage of EdU-negative” value in the data set with MCF7 (setting [1]) was found to be 26.3 ± 1.9%; in the data set with MCF7 (protein concentration 0.225 µM), 26.3 ± 0.94%; in the data set with hTERT-HMEC (setting [1]), 4.41 ± 0.39%; in the data set on hTERT-HMEC (protein concentration 0.225 µM) it was 5.85 ± 0.42%.

As to “MRPGAPGPLWPLPWGALAWAVGFVSSMGSGNPAPGGVCWLQQGQEATCSLVLQTDVTRAECCASGNIDTAWSNLTHPGNKINLLGFLGLVHCLPCKDSCDGVECGPGKACRMLGGRPRCECAPDCSGLPARLQVCGSDGATYRDECELRAARCRGHPDLSVMYRGRCRKSCEHVVCPRPQSCVVDQTGSAHCVVCRAAPCPVPSSPGQELCGNNNVTYISSCHMRQATCFLGRSIGVRHAGSCAGTPEEPPGGESAEEEENFV”, the “percentage of EdU-negative” value in the data set on MCF7 (setting [2]) was 26 ± 2.5%; in the data set on MCF7 (setting [3]) it was 24.7 ± 3.3%; with hTERT-HMEC (setting [2]) it was 4.24 ± 0.09%; in the data set on hTERT-HMEC (setting [3]), 4.84 ± 0.11%.

As for “MSPNFKLQCHFILIFLTALRGESRYLELREAADYDPFLLFSANLKRELAGEQPYRRALRCLDMLSLQGQFTFTADRPQLHCAAFFISEPEEFITIHYDQVSIDCQGGDFLKVFDGWILKGEKFPSSQDHPLPSAERYIDFCESGLSRRSIRSSQNVAMIFFRVHEPGNGFTLTIKTDPNLFPCNVISQTPNGKFTLVVPHQHRNCSFSIIYPVVIKISDLTLGHVNGLQLKKSSAGCEGIGDFVELLGGTGLDPSKMTPLADLCYPFHGPAQMKVGCDNTVVRMVSSGKHVNRVTFEYRQLEPYELENPNGNSIGEFCLSGL”, the “percentage of EdU-negative” value with MCF7 (setting [4]) stood at 25.7 ± 1.4%; in the data set on MCF7 (setting [5]) it was 28.3 ± 0.6%; in the data set on hTERT-HMEC (setting [4]), 5.2 ± 0.25%; with hTERT-HMEC (setting [5]) it was 6.58 ± 0.22%.

Take “MTSSRLWFSLLLAAAFAGRATALWPWPQNFQTSDQRYVLYPNNFQFQYDVSSAAQPGCSVLDEAFQRYRDLLFGSGSWPRPYLTGKRHTLEKNVLVVSVVTPGCNQLPTLESVENYTLTINDDQCLLLSETVWGALRGLETFSQLVWKSAEGTFFINKTEIEDFPRFPHRGLLLDTSRHYLPLSSILDTLDVMAYNKLNVFHWHLVDDPSFPYESFTFPELMRKGSYNPVTHIYTAQDVKEVIEYARLRGIRVLAEFDTPGHTLSWGPGIPGLLTPCYSGSEPSGTFGPVNPSLNNTYEFMSTFFLEVSSVFPDFYLHLGGDEVDFTCWKSNPEIQDFMRKKGFGEDFKQLESFYIQTLLDIVSSYGKGYVVWQEVFDNKVKIQPDTIIQVWREDIPVNYMKELELVTKAGFRALLSAPWYLNRISYGPDWKDFYIVEPLAFEGTPEQKALVIGGEACMWGEYVDNTNLVPRLWPRAGAVAERLWSNKLTSDLTFAYERLSHFRCELLRRGVQAQPLNVGFCEQEFEQT”: the “percentage of EdU-negative” value in the data set with MCF7 (setting [6]) stood at 25.5 ± 0.27%; in the data set on MCF7 (setting [7]), 26.4 ± 5.3%; in the data set with hTERT-HMEC (setting [6]) it was 5.032 ± 0.0092%; with hTERT-HMEC (setting [7]) it was 20.1 ± 1.8%.

On to “MGLSTVPDLLLPLVLLELLVGIYPSGVIGLVPHLGDREKRDSVCPQGKYIHPQNNSICCTKCHKGTYLYNDCPGPGQDTDCRECESGSFTASENHLRHCLSCSKCRKEMGQVEISSCTVDRDTVCGCRKNQYRHYWSENLFQCFNCSLCLNGTVHLSCQEKQNTVCTCHAGFFLRENECVSCSNCKKSLECTKLCLPQIENVKGTEDSGTTVLLPLVIFFGLCLLSLLFIGLMYRYQRWKSKLYSIVCGKSTPEKEGELEGTTTKPLAPNPSFSPTPGFTPTLGFSPVPSSTFTSSSTYTPGDCPNFAAPRREVAPPYQGADPILATALASDPIPNPLQKWEDSAHKPQSLDTDDPATLYAVVENVPPLRWKEFVRRLGLSDHEIDRLELQNGRCLREAQYSMLATWRRRTPRREATLELLGRVLRDMDLLGCLEDIEEALCGPAALPPAPSLLR”, for which the “percentage of EdU-negative” value in the data set with MCF7 (setting [2]) came to 24.9 ± 3.4%; in the data set on MCF7 (setting [3]) it was 25.5 ± 0.84%; with hTERT-HMEC (setting [2]) it was 4.76 ± 0.43%; in the data set with hTERT-HMEC (setting [3]), 5.34 ± 0.28%.

Turning to “MAAERGARRLLSTPSFWLYCLLLLGRRAPGAAAARSGSAPQSPGASIRTFTPFYFLVEPVDTLSVRGSSVILNCSAYSEPSPKIEWKKDGTFLNLVSDDRRQLLPDGSLFISNVVHSKHNKPDEGYYQCVATVESLGTIISRTAKLIVAGLPRFTSQPEPSSVYAGNNAILNCEVNADLVPFVRWEQNRQPLLLDDRVIKLPSGMLVISNATEGDGGLYRCVVESGGPPKYSDEVELKVLPDPEVISDLVFLKQPSPLVRVIGQDVVLPCVASGLPTPTIKWMKNEEALDTESSERLVLLAGGSLEISDVTEDDAGTYFCIADNGNETIEAQAELTVQAQPEFLKQPTNIYAHESMDIVFECEVTGKPTPTVKWVKNGDMVIPSDYFKIVKEHNLQVLGLVKSDEGFYQCIAENDVGNAQAGAQLIILEHAPATTGPLPSAPRDVVASLVSTRFIKLTWRTPASDPHGDNLTYSVFYTKEGIARERVENTSHPGEMQVTIQNLMPATVYIFRVMAQNKHGSGESSAPLRVETQPEVQLPGPAPNLRAYAASPTSITVTWETPVSGNGEIQNYKLYYMEKGTDKEQDVDVSSHSYTINGLKKYTEYSFRVVAYNKHGPGVSTPDVAVRTLSDVPSAAPQNLSLEVRNSKSIMIHWQPPAPATQNGQITGYKIRYRKASRKSDVTETLVSGTQLSQLIEGLDRGTEYNFRVAALTINGTGPATDWLSAETFESDLDETRVPEVPSSLHVRPLVTSIVVSWTPPENQNIVVRGYAIGYGIGSPHAQTIKVDYKQRYYTIENLDPSSHYVITLKAFNNVGEGIPLYESAVTRPHTDTSEVDLFVINAPYTPVPDPTPMMPPVGVQASILSHDTIRITWADNSLPKHQKITDSRYYTVRWKTNIPANTKYKNANATTLSYLVTGLKPNTLYEFSVMVTKGRRSSTWSMTAHGTTFELVPTSPPKDVTVVSKEGKPKTIIVNWQPPSEANGKITGYIIYYSTDVNAEIHDWVIEPVVGNRLTHQIQELTLDTPYYFKIQARNSKGMGPMSEAVQFRTPKADSSDKMPNDQASGSGGKGSRLPDLGSDYKPPMSGSNSPHGSPTSPLDSNMLLVIIVSVGVITIVVVVIIAVFCTRRTTSHQKKKRAACKSVNGSHKYKGNSKDVKPPDLWIHHERLELKPIDKSPDPNPIMTDTPIPRNSQDITPVDNSMDSNIHQRRNSYRGHESEDSMSTLAGRRGMRPKMMMPFDSQPPQPVISAHPIHSLDNPHHHFHSSSLASPARSHLYHPGSPWPIGTSMSLSDRANSTESVRNTPSTDTMPASSSQTCCTDHQDPEGATSSSYLASSQEEDSGQSLPTAHVRPSHPLKSFAVPAIPPPGPPTYDPALPSTPLLSQQALNHHIHSVKTASIGTLGRSRPPMPVVVPSAPEVQETTRMLEDSESSYEPDELTKEMAHLEGLMKDLNAITTA”, the “percentage of EdU-negative” value in the data set with MCF7 (setting [8]) came to 24 ± 1.2%; with MCF7 (setting [9]), 26.44 ± 0.25%; with hTERT-HMEC (setting [8]) it was 6.13 ± 1.3%; in the data set with hTERT-HMEC (setting [9]), 12.3 ± 1.7%.

The record behind these values is the supplement of paper PMC11316812.
